Experimental data taken from patent US20230303690A1 (published 2023).
Where two headings read alike, the source gives them in different places.

Experiments:
[1] = molecular target: T1, LAG3 Protein, Human, Recombinant (His Tag) (Sino Biological Catalog No. 16498-H08H) (human, UniProt P18627 23-450); experiment: SPR (Biacore), sdAb captured by anti-human Fc, LAG3-His analyte
T1 construct: Bought protein; also called hLAG3-His; LAG3-His; not shown: His tag
T1 sequence (looked up): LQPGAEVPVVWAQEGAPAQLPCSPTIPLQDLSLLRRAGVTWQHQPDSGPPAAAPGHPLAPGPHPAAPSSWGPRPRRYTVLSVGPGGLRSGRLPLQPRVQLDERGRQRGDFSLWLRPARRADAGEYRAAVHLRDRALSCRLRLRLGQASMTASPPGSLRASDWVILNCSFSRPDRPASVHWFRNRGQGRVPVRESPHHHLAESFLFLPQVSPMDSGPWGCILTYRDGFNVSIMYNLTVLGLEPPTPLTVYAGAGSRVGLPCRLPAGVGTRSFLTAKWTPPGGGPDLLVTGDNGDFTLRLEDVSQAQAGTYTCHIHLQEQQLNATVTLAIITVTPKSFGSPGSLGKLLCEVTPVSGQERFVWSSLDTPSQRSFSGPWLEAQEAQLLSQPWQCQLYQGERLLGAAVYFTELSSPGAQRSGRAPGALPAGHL
Protocol: The binding of the single domain antibodies to recombinant human LAG3 protein (rhLAG3) was examined by Biacore™ assay. […] The coating was carried out according to the manufacturer’s instructions accompanying the kit (Catalog No. BR-1008-39, GE). […] The chip surface was regenerated after each cycle with 25 mM NaOH followed by HBS-EP wash provided in the kit.

[2] = molecular target: T2, human LAG3 expressed on cells (human, UniProt P18627 23-525); experiment: cell ELISA, 293T-hLAG3 cells
T2 construct: whole, on cells
T2 sequence (looked up): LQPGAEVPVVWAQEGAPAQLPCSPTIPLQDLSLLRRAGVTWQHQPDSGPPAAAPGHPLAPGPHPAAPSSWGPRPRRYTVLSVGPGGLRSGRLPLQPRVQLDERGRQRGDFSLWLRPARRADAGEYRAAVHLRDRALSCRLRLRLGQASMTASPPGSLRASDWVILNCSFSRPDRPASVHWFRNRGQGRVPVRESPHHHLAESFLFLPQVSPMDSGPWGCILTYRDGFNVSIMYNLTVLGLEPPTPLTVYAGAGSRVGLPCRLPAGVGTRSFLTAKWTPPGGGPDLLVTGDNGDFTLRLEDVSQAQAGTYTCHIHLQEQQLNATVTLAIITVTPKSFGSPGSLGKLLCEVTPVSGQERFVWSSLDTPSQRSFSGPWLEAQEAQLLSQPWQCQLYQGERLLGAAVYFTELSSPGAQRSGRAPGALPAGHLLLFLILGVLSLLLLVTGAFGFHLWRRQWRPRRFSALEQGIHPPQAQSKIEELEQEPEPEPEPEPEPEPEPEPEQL
Protocol: Each well was treated with stimulants. The cells were then fixed and blocked with Blocking buffer. The Primary antibodies were added. The wells were washed and a HRP-conjugated secondary antibody was added. The wells were washed with 1x PBS and a solution containing TMB (Biopanda, TMB-S-004) was added. The TMB reacted with HRP to change the color thereof from colorless to blue. An acid stop solution (Solarbio, C1058) was then added to stop the reaction and change the blue color to yellow.
Materials are listed below: [0072] […] 2) Blocking buffer: 1×PBS+3% BSA (Sigma, B2064); [0074] […] [0075] 4) Secondary antibody: Goat anti-human IgG1 Fc antibody, HRP (1:2500, invitrogen, A18817). [0076]

[3] = molecular target: T1, LAG3 Protein, Human, Recombinant (His …); experiment: ELISA, coated hLAG3-His
Protocol: (§1) Plates were coated with 100 µL per well of Coating Solution, and then covered, and incubated overnight (12-18 hours) at 2-8° C. The wells were aspirated and washed 1 time with >200 µL of Wash buffer per well, inverted and tapped on absorbent paper to remove excess liquid. The plates were blocked with 200 µL per well with Blocking buffer (1×PBS+4% milk) for 1 hour at room temperature, aspirated, inverted, and tapped on absorbent paper to remove excess liquid. Standards and sample dilutions were prepared in Blocking buffer. 100 µL of standards (in duplicate) and samples were pipetted into designated wells. After incubation for 1 hour at room temperature with gentle continual shaking (~500 rpm), the wells were aspirate and washed 3 times with >200 µL of Wash buffer per well, inverted and tapped on absorbent paper to remove excess liquid.
(§2) The primary antibody solution was diluted with Blocking buffer. See Table 14 for recommended primary antibody dilution. 100 µL of the primary antibody solution was added into each well and incubated for 2 hours at room temperature with gentle continual shaking (~500 rpm). The wells were aspirated and washed 3 times with >200 µL of Wash buffer per well, inverted and tapped on absorbent paper to remove excess liquid. The working solution of secondary antibody was made with Blocking buffer by diluting the secondary antibody by 2,500 times. 100 µL of secondary antibody working solution was added into each well and incubated for 30 minutes at room temperature. The wells were aspirated and washed 5 times with >200 µL of Wash buffer per well, inverted and tapped on absorbent paper to remove excess liquid. 100 µL of TMB substrate solution (Biopanda, TMB-S-004) was added to each well and incubated for 30 minutes at room temperature. 100 µL of Stop solution (Solarbio, C1058) was added to each well.

[4] = molecular target: T1, LAG3 Protein, Human, Recombinant (His …); experiment: ELISA, coated hLAG3-His; remark: listed apart in the source
Protocol: as §1
as §2, with “well. Absorbance at 450 nm was measured within 30 minutes of adding Stop solution. Results were calculated using a log-log or 4-parameter curve fit.” for “well.”

[5] = molecular target: T2, human LAG3 expressed on cells; experiment: FACS, 293T-hLAG3 cells
Protocol: 5) The prepared antibody samples were added to the 96-well plate according to the platemap, the cells were resuspended and incubate at 4° C. for 1 hour.
7) 3% BSA/1xPBS was used to dilute Goat polyclonal Secondary Antibody to Human IgG-Fc (DyLight® 650) to the desired concentration (1:200), in which the cells were resuspended and incubated at 4° C. for 1 hour.
9) The cells were resuspended in 200 µl of 3% BSA/1xPBS, and performed flow cytometric testing by Shsti Biotech Inc.

B1: sdAb No. 8 (VHH)
VHH: QLQLVESGGGLVQPGGSLRLSCAASGFTLDYYAIGWFRQAPGKEREGVSCISSSDGSTYYADSVKGRFTISRDNAKNTVYLQMNSLKPEDTAIYYCARDSLSGSGYGCRGPYDYWGQGTQVTVSS
notes: Fc of the tested form not described; not shown: Fc part implied by anti-human Fc capture
B1 gave a Kd [1] of 0.347 nM, a koff [1] of 0.000277 s⁻¹ and a kon [1] of 797000 M⁻¹ s⁻¹.

B2: sdAb No. 27-H1 (VHH)
VHH: QVQLVESGGGLVQPGGSLRLSCAASGFTLDYYAIGWFRQAPGKEREGVSCIRSSDASTYYADSVKGRFTISSDNTKNTVYLQMNSLKPEDTAVYYCATDRYSDCRGPYENWGQGTQVTVSS
notes: Modified sdAb No. 27 (CDR2 DG to DA); not shown: Fc part implied by anti-human IgG1 Fc detection
B2 was tested, and the EC50 [2] was 1.4 nM, the “OD450 at 0.0045725 ug/ml” value [2] was 0.076 and the “OD450 at 0.0137174 ug/ml” value [2] was 0.171. For the same binder, the “OD450 at 0.0411523 ug/ml” value [2] was 0.359, the “OD450 at 0.1234568 ug/ml” value [2] was 0.719 and the “OD450 at 0.3703704 ug/ml” value [2] was 1.08. The “OD450 at 1.111111 ug/ml” value [2] was 1.17, the “OD450 at 3.333333 ug/ml” value [2] was 1.24 and the “OD450 at 10 ug/ml” value [2] was 1.33. The EC50 [3] was 3.28 nM, the “OD450 at 0.004572 ug/ml” value [3] was 0.04 and the “OD450 at 0.013717 ug/ml” value [3] was 0.043. For the same binder, the “OD450 at 0.041152 ug/ml” value [3] was 0.063, the “OD450 at 0.123457 ug/ml” value [3] was 0.36 and the “OD450 at 0.37037 ug/ml” value [3] was 1.42. For the same binder, the “OD450 at 1.111111 ug/ml” value [3] was 1.8, the “OD450 at 3.333333 ug/ml” value [3] was 2 and the “OD450 at 10 ug/ml” value [3] was 1.95.

B3: sdAb No. 27-H2 (VHH)
VHH: QVQLVESGGGLVQPGGSLRLSCAASGFTLDYYAIGWFRQAPGKEREGVSCIRSSEGSTYYADSVKGRFTISSDNTKNTVYLQMNSLKPEDTAVYYCATDRYSDCRGPYENWGQGTQVTVSS
notes: Modified sdAb No. 27 (CDR2 DG to EG); not shown: Fc part implied by anti-human IgG1 Fc detection
In the case of B3, the EC50 [2] is reported as 1.55 nM, the “OD450 at 0.0045725 ug/ml” value [2] is reported as 0.075 and the “OD450 at 0.0137174 ug/ml” value [2] is reported as 0.152. The “OD450 at 0.0411523 ug/ml” value [2] was 0.314, the “OD450 at 0.1234568 ug/ml” value [2] was 0.626 and the “OD450 at 0.3703704 ug/ml” value [2] was 1.07. For the same binder, the “OD450 at 1.111111 ug/ml” value [2] was 1.16, the “OD450 at 3.333333 ug/ml” value [2] was 1.14 and the “OD450 at 10 ug/ml” value [2] was 1.2. The EC50 [3] was 3.73 nM, the “OD450 at 0.004572 ug/ml” value [3] was 0.038 and the “OD450 at 0.013717 ug/ml” value [3] was 0.043. For the same binder, the “OD450 at 0.041152 ug/ml” value [3] was 0.063, the “OD450 at 0.123457 ug/ml” value [3] was 0.334 and the “OD450 at 0.37037 ug/ml” value [3] was 1.43. The “OD450 at 1.111111 ug/ml” value [3] was 1.96, the “OD450 at 3.333333 ug/ml” value [3] was 2.08 and the “OD450 at 10 ug/ml” value [3] was 2.27.

B4: sdAb No. 27-H1B3 (VHH)
VHH: QVQLVESGGGLVQPGGSLRLSCAASGFTLDYYAIGWFRQAPGKEREGVSCIRSSDASTYYADSVKGRFTISSDNSKNTVYLQMNSLRAEDTAVYYCATDRYSDCRGPYENWGQGTMVTVSS
notes: Humanized sdAb No. 27-H1; not shown: Fc part implied by anti-human IgG Fc detection
With B4 the EC50 [4] was 2.08 nM, the “OD450 at 0.061 nM” value [4] was 0.038 and the “OD450 at 0.1829 nM” value [4] was 0.057. The “OD450 at 0.5487 nM” value [4] was 0.212, the “OD450 at 1.6461 nM” value [4] was 1.15 and the “OD450 at 4.9383 nM” value [4] was 2.53. For the same binder, the “OD450 at 14.815 nM” value [4] was 2.88, the “OD450 at 44.445 nM” value [4] was 2.91 and the “OD450 at 133.335 nM” value [4] was 2.99. For the same binder, the EC50 [5] was 1.18 nM, the “FACS signal at 0.061 nM” value [5] was 234 and the “FACS signal at 0.1829 nM” value [5] was 585. For the same binder, the “FACS signal at 0.5487 nM” value [5] was 1420, the “FACS signal at 1.6461 nM” value [5] was 2810 and the “FACS signal at 4.9383 nM” value [5] was 3820. For the same binder, the “FACS signal at 14.815 nM” value [5] was 4360, the “FACS signal at 44.445 nM” value [5] was 4620 and the “FACS signal at 133.335 nM” value [5] was 4630.

B5: sdAb No. 25-B7 (VHH)
VHH: QLQLVESGGGLVKPGGSLRLSCAASGSIESFSFMGWYRQAPGKQRELVAGFTGAASLSFSTYTDAVKGRFTISRDNAKNSVYLQMNSLRAEDTAVYFCNVDPWSQSWPGRYWGQGTTVTVSS
notes: Humanized sdAb No. 25; not shown: Fc part implied by anti-human IgG Fc detection
For B5, the EC50 [4] was 2 nM, the “OD450 at 0.061 nM” value [4] was 0.038 and the “OD450 at 0.1829 nM” value [4] was 0.057. The “OD450 at 0.5487 nM” value [4] was 0.132, the “OD450 at 1.6461 nM” value [4] was 0.648 and the “OD450 at 4.9383 nM” value [4] was 1.25. For the same binder, the “OD450 at 14.815 nM” value [4] was 1.41, the “OD450 at 44.445 nM” value [4] was 1.33 and the “OD450 at 133.335 nM” value [4] was 1.66. The EC50 [5] was 0.6 nM, the “FACS signal at 0.061 nM” value [5] was 191 and the “FACS signal at 0.1829 nM” value [5] was 487. The “FACS signal at 0.5487 nM” value [5] was 1110, the “FACS signal at 1.6461 nM” value [5] was 1690 and the “FACS signal at 4.9383 nM” value [5] was 2030. The “FACS signal at 14.815 nM” value [5] was 2210, the “FACS signal at 44.445 nM” value [5] was 2480 and the “FACS signal at 133.335 nM” value [5] was 2380.

B6: sdAb No. 17-H5 (VHH)
VHH: QLQLVESGGGLVQPGGSLRLSCAASGLTLDAYAIGWFRQAPGKEREGLACISGSDASTHYLDSVKGRFTISRDNGKNTMALQMNSLQFGDTAIYYCAARRGSCSGSWTYWGQGTQVTVSS
notes: Modified sdAb No. 17 (CDR1 and CDR2 DG to DA); not shown: Fc part implied by anti-human IgG1 Fc detection
B6 was tested, and the EC50 [3] was 1.19 nM.
